Results: US20230144459A1 (BIOND BIOLOGICS, published 2023)
Where no end group is shown, it is not given here.

T1: L145K CD28 stalk region dimeric peptide (human, C-terminal biotin; dimeric)
T1 construct: also called CD28 stalk region peptide with mutation at the cleavage site
T1 peptide: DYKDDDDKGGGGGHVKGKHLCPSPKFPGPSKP

T2: c-Myc conjugated and biotinylated human CD28 stalk region dimeric peptide (wild-type) (human, C-terminal biotin; dimer by a disulfide linkage at Cysteine 141 (CD28 numbering))
T2 construct: N-terminal tag, five glycines, then His134-Pro152 of human CD28; also called substrate peptide; wild-type CD28 stalk region dimeric peptide
T2 peptide: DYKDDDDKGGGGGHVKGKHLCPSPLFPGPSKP

T3: BSA conjugated CD28 stalk region dimeric peptide (human, also: dimer, conjugated to BSA via C-terminal Lys)
T3 construct: also called stalk region peptide
T3 peptide: GKHLCPSPLFPGPSKPK


How the values were obtained:
[1] = target: T1, L145K CD28 stalk region dimeric peptide; assay: direct ELISA on biotinylated dimeric peptide on neutravidin plates
[2] = target: T2, c-Myc conjugated and biotinylated human …; assay: direct ELISA, wild-type biotinylated dimeric stalk peptide on neutravidin plates
membranal human CD28 [3] = target: T4, membranal human CD28 (human, UniProt P10747 19-220); assay: cell-based or functional assay
membranal human CD28 [4] = target: T4, membranal human CD28; assay: flow cytometry on HEK293 cells over expressing human CD28; percent reduction of median CD86-Fc (2 µg/mL) signal; competitor CD86-Fc
[5] = target: T3, BSA conjugated CD28 stalk region …; assay: ELISA, BSA conjugated dimeric peptide on plate, serial dilution of M9

Row | Binder | binding result [1] | binding result [2] | Inhibition (%) of CD28 shedding (membranal human CD28 [3]) | Blocking CD86 binding (%) (membranal human CD28 [4]) | binding result [5]
1 | VHH clone 4A1 (VHH, VHH with AAA linker and C-terminal His6, made in CHO cells) VHH: QVQLVESGGGLVQAGGSLRLSCAASGSIFSINAMGWYRQAPGKQRERVAAITSGGSTNYADSVKGRFTISRDNAKNTVYLQMNNLEPRDAGVYYCVVDLYGEDYWIWGQGTQVTVSS | no binding (tested: 0.2-5 µg/mL) | binds | – | – | –
2 | VHH clone 2A1 (VHH, VHH with AAA linker and C-terminal His6, made in CHO cells; also called VHH #2A1; 2A1-6H) VHH: EVQLVESGGGLVQAGESLRLSCAASGSIASINAMGWYRQAPGSQRELVAAISGGGDTYYADSVKGRFTISRDNAKTTVYLQMNSLRPEDTAVYYCVVDLYGSDYWDWGQGTQVTVSSAAAHHHHHH | no binding (tested: 0.2-5 µg/mL) | binds | 58.9% | 8.2% | –
3 | VHH clone 4A4 (VHH, VHH with AAA linker and C-terminal His6, made in CHO cells) VHH: EVQLVESGGGLVQAGGSLRLSCAASGSLFSINAMAWYRQAPGKQRELVAAITSSGSTNYANSVKGRFTVSRDNAKNTMYLQMNSLKPEDTAVYYCVVDEYGSDYWIWGQGTQVTVSS | no binding (tested: 0.2-5 µg/mL) | binds | – | – | –
4 | antibody M9 (antibody, V domains shown, Full-size mouse antibody from CD1 mice immunised with the dimeric stalk peptide, detected with anti mouse IgG; also called clone M9; anti-cleavage antibody M9) VH: DVKLVESGGGLVKLGGSLKLSCVASGFTFSSYYMSWVRQTPEKRLEWVATISDGGDNTYYAGTVTGRFTISRDFAKNTLYLQMNSLTSEDTAVYYCARIHWPYYFDSWGQGTTLTVSS VL: QFVLSQSPAILSASPGEMLTMTCRASSSVSYMNWYQQKPGSSPKPWIYATSDLASGVPARFSGSGSGTSYSLTISRVEAEDAATYYCQQWSSHPPTFGGGTKLEIR | – | – | – | – | binds
